The text below walks through data of article PMC11168072.

In experiment [1] the target is DtpA, A-type dye-decolorizing peroxidase from Streptomyces lividans (Streptomyces lividans). Put plainly: AUC; sedimentation velocity, absorbance at 410 nm, 40,000 rpm, 20°C, 50 mM HEPES pH 7.0, 100 mM NaCl, protein 0.75-0.85 μM, c(S) model in SEDFIT.
In experiment [2] the target is DtpAa, A-type dye-decolorizing peroxidase from Streptomyces lividans (Streptomyces lividans). Described as above.
The target of experiment [3] is DtpB, B-type dye-decolorizing peroxidase from Streptomyces lividans (Streptomyces lividans). The experiment is described as above.
For experiment [4] the target is unchanged. Put plainly: cryo-EM structure; single particle, Titan Krios 300 kV, DtpB ~6 mg/mL with 8 mM CHAPSO, D3 symmetry imposed, 3.02 Å map of the hexamer.
Experiment [5] has the same target. Nature of the experiment: cryo-EM structure; single particle, Talos Arctica 200 kV, DtpB ~6 mg/mL with 8 mM CHAPSO, C1 symmetry, low resolution maps of quasi-hexamer (14.5 Å) and dodecamer (13.4 Å).

Several values for one entry are separate records, joined by “and”; a condition that tells them apart may be missing. Equal entries are not always repeated.

As to “DtpA, A-type dye-decolorizing peroxidase from Streptomyces lividans (enzyme)”, in experiment [1], the proportion of the sedimenting species (ratio), species 1, dimer was found to be 76; the proportion of the sedimenting species (ratio), species 2, tetramer was found to be 13; the stoichiometry N was 2 and 4.

For “DtpAa, A-type dye-decolorizing peroxidase from Streptomyces lividans (enzyme)”, the stoichiometry N in experiment [2] is 2.

With “DtpB, B-type dye-decolorizing peroxidase from Streptomyces lividans (enzyme)”, in experiment [3], the proportion of the sedimenting species (ratio), species 1, dimer worked out at 2.5; the proportion of the sedimenting species (ratio), species 2, hexamer stood at 82; the proportion of the sedimenting species (ratio), species 3, dodecamer came out at 10. In addition, the stoichiometry N in experiment [4] amounted to 6. This substance also displayed a stoichiometry N in experiment [5] of 12.
